Experimental data taken from patent US20060153844A1, “Methods to trigger, maintain and manipulate immune responses by targeted administration of biological response modifiers into lymphoid organs” (priority 2004, published 2006).

System: PLA2-specific IgG2a and IgG1 antibodies
Assay: anti-PLA2 IgG2a, IgG1 and IgE in sera after intralymphatic PLA2 plus TLR ligand
Assay type: in vivo, CBA/J mice
Protocol: The compounds were mixed within an hour before injection into the inguinal lymph node.
The sera were obtained over 13 weeks and analyzed by ELISA for anti-PLA2 IgG2a (FIG. 10A) and IgG1 (FIG. 10B). The ratio of IgG2a to IgG1 titers was calculated as a measure for Th1/Th2 immune response balance (FIG. 10C). […] Pre-immunization levels of anti-PLA2 antibodies were measured on sera from five mice taken the day before first injection.

B1: flagellin: flagellin, S. thyphimurium, TLR 5 ligand (protein, UniProt P06179 2-495, looked up)
Flagellin: AQVINTNSLSLLTQNNLNKSQSALGTAIERLSSGLRINSAKDDAAGQAIANRFTANIKGLTQASRNANDGISIAQTTEGALNEINNNLQRVRELAVQSANSTNSQSDLDSIQAEITQRLNEIDRVSGQTQFNGVKVLAQDNTLTIQVGANDGETIDIDLKQINSQTLGLDTLNVQQKYKVSDTAATVTGYADTTIALDNSTFKASATGLGGTDQKIDGDLKFDDTTGKYYAKVTVTGGTGKDGYYEVSVDKTNGEVTLAGGATSPLTGGLPATATEDVKNVQVANADLTEAKAALTAAGVTGTASVVKMSYTDNNGKTIDGGLAVKVGDDYYSATQNKDGSISINTTKYTADDGTSKTALNKLGGADGKTEVVSIGGKTYAASKAEGHNFKAQPDLAEAAATTTENPLQKIDAALAQVDTLRSDLGAVQNRFNSAITNLGNTVNNLTSARSRIEDSDYATEVSNMSRAQILQQAGTSVLAQANQVPQNVLSLLR
i.ln. with 0.1 μg PLA2, sera over 13 weeks
  kinetics of the antibody production (time of maximum titers): peak titers were delayed
i.ln. with 0.1 μg PLA2, three injections
  anti-PLA2 antibody isotypes induced (IgG2a, IgG1): induced both IgG2a and IgG1
